No end group written: not given here. *: point of attachment. FITC = O=C1OC2(c3ccc(O)cc3Oc3cc(O)ccc32)c2ccc(NC(=S)*)cc21
Assays:
PBP1b^R141A/R397A = assay type: biochemical, Escherichia coli; details: versus PBP1b^WT; GTase, dansyl-lipid II; mean ± s.d. of three experiments
PBP1b = biological target: T1, PBP1b (Escherichia coli, UniProt P02919); details: cited from earlier work
T1 sequence (P02919 1-799 isoform P02919-2): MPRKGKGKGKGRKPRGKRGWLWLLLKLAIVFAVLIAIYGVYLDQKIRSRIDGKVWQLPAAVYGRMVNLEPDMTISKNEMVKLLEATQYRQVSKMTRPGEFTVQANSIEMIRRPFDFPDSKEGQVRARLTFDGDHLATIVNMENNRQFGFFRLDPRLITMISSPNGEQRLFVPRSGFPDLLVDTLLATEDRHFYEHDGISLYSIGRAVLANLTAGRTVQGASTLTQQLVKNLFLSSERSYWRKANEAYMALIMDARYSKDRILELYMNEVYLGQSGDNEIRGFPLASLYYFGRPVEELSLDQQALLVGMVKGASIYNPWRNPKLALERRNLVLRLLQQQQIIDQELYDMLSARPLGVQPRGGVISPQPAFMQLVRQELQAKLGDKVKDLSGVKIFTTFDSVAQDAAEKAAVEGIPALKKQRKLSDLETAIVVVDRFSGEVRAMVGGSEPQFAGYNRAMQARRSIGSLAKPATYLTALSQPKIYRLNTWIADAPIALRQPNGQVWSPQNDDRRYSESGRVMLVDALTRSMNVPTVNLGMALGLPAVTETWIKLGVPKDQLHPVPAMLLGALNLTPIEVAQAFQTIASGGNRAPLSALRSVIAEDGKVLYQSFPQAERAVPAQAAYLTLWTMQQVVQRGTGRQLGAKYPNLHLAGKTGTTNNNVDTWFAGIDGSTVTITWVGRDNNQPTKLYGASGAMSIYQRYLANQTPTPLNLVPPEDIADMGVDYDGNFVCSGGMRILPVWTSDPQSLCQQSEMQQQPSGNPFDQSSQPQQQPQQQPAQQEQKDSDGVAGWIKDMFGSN
Text: Bacteria generally have at least one bifunctional (GTase/TPase) PBP of class A and one monofunctional (TPase only) PBP of class B ([2], [13]). E. coli contains three aPBPs: PBP1a, 1b, and 1c, and two bPBPs: PBP2 and PBP3, the latter being involved in cell elongation and division, respectively ([14]). PBP1a and PBP1b are major PG synthases and at least one of them is required for cell viability ([15]).

[1] = test system: E. coli EJ801 (ΔponB-ponA^ts); assay: microscopy of EJ801 cells, cell morphology and length; assay type: cell-based, Escherichia coli; design: cell length L: unit not given here; details: EJ801 after 1 h at 42 °C, n = 250, phase contrast, ImageJ/ObjectJ
Procedure: Samples were taken from the complementation cultures (42 °C) at different time (1-h intervals), and the cells were fixed as described ([63]). Photographs were taken with a cooled AxioCam MRm (Zeiss) mounted on a Zeiss Axio Imager. Z1 microscope, and the images were acquired in phase-contrast mode using the AxioVision Rel. 4.5 (Zeiss) software. The cell morphologies analysis were determined using ImageJ software (RRID:SCR_003070) running under plugin ObjectJ (RRID:SCR_019190).

PBP1b R141A/R397A = biological target: T2, PBP1b R141A/R397A (E. coli, UniProt P02919 1-844, R141A | R397A); assay: cell-based or functional assay
T2 sequence (looked up): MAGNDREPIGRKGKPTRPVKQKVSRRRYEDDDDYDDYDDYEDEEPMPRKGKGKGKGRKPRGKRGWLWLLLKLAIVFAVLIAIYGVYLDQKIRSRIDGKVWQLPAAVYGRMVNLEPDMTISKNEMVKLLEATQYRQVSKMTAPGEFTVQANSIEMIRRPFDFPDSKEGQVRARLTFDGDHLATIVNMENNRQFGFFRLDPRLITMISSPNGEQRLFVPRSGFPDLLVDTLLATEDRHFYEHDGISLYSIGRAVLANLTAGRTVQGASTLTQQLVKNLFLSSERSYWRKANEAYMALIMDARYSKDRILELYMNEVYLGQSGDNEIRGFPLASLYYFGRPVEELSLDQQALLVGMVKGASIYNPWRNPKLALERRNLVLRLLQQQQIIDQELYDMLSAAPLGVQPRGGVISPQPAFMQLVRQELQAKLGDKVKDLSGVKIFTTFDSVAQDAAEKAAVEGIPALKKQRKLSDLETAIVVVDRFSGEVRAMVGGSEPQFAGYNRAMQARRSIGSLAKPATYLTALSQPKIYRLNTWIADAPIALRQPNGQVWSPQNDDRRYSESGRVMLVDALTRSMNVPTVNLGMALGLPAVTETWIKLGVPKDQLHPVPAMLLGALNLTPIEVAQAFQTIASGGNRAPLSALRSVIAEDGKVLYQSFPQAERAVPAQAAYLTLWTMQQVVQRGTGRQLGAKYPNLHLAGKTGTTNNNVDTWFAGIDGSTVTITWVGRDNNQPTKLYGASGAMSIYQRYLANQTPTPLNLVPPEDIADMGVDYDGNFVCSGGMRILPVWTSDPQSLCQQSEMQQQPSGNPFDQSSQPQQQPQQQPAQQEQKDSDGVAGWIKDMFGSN

PBP1b (positions 58–804) = biological target: T3, PBP1b (positions 58–804) (E. coli, UniProt P02919 58-804); assay: crystal structure; co-crystallization of PBP1b (Lys58–Ser804) with moenomycin A (1:1) and EFtsN peptide (3:1), hanging drop, 20 °C; 2.4 Å; details: both partners purified
T3 construct: Crystallized with moenomycin A (1:1) and the EFtsN peptide (3:1); also called PBP1b (Lys58–Ser804); source: purified (details in the supporting information)
T3 sequence (looked up): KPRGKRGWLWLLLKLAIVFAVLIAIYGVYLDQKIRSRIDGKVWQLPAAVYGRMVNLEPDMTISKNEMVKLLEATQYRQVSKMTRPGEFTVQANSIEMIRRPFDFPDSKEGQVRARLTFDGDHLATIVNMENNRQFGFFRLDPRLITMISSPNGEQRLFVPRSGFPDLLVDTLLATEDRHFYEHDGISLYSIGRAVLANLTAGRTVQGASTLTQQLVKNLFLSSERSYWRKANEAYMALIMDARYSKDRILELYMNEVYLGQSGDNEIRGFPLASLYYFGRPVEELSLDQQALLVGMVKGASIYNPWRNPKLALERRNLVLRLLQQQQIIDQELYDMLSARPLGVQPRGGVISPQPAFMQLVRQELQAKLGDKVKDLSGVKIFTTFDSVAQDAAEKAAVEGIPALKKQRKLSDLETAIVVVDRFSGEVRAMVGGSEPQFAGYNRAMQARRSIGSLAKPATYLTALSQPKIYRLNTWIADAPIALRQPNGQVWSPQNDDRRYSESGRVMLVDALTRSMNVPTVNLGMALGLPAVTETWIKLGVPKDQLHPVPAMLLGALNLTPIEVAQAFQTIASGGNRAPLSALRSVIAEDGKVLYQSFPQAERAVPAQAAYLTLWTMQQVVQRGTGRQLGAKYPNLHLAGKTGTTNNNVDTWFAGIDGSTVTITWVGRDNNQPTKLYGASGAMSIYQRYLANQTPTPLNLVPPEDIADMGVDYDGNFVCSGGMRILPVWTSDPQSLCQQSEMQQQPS

[2] = biological target: T4, PBP1bγ (penicillin-binding protein 1b, gamma form) (E. coli, UniProt P02919-2 1-799); assay: fluorescence polarisation; fluorescence anisotropy; FITC-Lys69–Gln93 probe at 100 nM, serial dilutions of the proteins in their specific buffer, 384-well plates, 30 min at 25 °C; details: both partners purified
T4 construct: also called 1b WT
T4 sequence (looked up): T1 sequence (P02919 1-799 isoform P02919-2)

B1: LpoB: outer-membrane lipoprotein LpoB (protein, UniProt P0AB38 20-213, looked up)
Penicillin-binding protein …: CVGQREPAPVEEVKPAPEQPAEPQQPVPTVPSVPTIPQQPGPIEHEDQTAPPAPHIRHYDWNGAMQPMVSKMLGADGVTAGSVLLVDSVNNRTNGSLNAAEATETLRNALANNGKFTLVSAQQLSMAKQQLGLSPQDSLGTRSKAIGIARNVGAHYVLYSSASGNVNAPTLQMQLMLVQTGEIIWSGKGAVSQQ
In the case of B1, the “activation of PBP1b^R141A/R397A by LpoB” value (PBP1b^R141A/R397A) is given as “remained unchanged” and the “catalytic activities of PBP1b (literature)” value (PBP1b) is given as “stimulates both of its catalytic activities”.

B2: PBP1b^WT: PBP1b wild-type (protein)
chain: T1 sequence (P02919 1-799 isoform P02919-2)
With B2 the “cell length L” value [1] was 2.17 ± 0.46.

B3: HisFtsN (full-length FtsN) (natural protein, E. coli, UniProt P29131 1-319, looked up)
chain: MAQRDYVRRSQPAPSRRKKSTSRKKQRNLPAVSPAMVAIAAAVLVTFIGGLYFITHHKKEESETLQSQKVTGNGLPPKPEERWRYIKELESRQPGVRAPTEPSAGGEVKTPEQLTPEQRQLLEQMQADMRQQPTQLVEVPWNEQTPEQRQQTLQRQRQAQQLAEQQRLAQQSRTTEQSWQQQTRTSQAAPVQAQPRQSKPASSQQPYQDLLQTPAHTTAQSKPQQAAPVARAADAPKPTAEKKDERRWMVQCGSFRGAEQAETVRAQLAFEGFDSKITTNNGWNRVVIGPVKGKENADSTLNRLKMAGHTNCIRLAAGG
With B3 the “fold decrease in activation of the GTase activity of PBP1b R141A/R397A by FtsN against the WT protein, continuous fluorescence assay” value (PBP1b R141A/R397A) was 2 fold.

B4: EFtsN peptide (Leu75–Gln93), unlabeled (peptide)
peptide: LPPKPEERWRYIKELESRQ
notes: FtsN, E. coli, residues Leu75–Gln93 (essential region around helix H2); also called essential region of FtsN; synthetic peptide Leu75–Gln93; source: synthetic peptide, bought: Synpeptide (Shanghai, China)
B4: binds (PBP1b (positions 58–804)).

B5: FITC-labeled peptide (FITC-Lys69–Gln93) of FtsN (peptide)
peptide: {FITC}-KVTGNGLPPKPEERWRYIKELESRQ
notes: also called F-EFtsN; fluorescent EFtsN peptide; source: synthetic peptide, bought: Synpeptide (Shanghai, China)
In the case of B5, the Kd [2] is reported as 8.1 ± 1.7 µM.
